Results published in IntAct's records for PubMed 22807449.

B1: Natural cytotoxicity triggering receptor 3 (Homo sapiens), O14931 (parent)
chain: MAWMLLLILIMVHPGSCALWVSQPPEIRTLEGSSAFLPCSFNASQGRLAIGSVTWFRDEVVPGKEVRNGTPEFRGRLAPLASSRFLHDHQAELHIRDVRGHDASIYVCRVEVLGLGVGTGNGTRLVVEKEHPQLGAGTVLLLRAGFYAVSFLSVAVGSTVYYQGKCLTWKGPRRQLPAVVPAPLPPPCGSSAHLLPPVPGG
B2: Natural cytotoxicity triggering receptor 3 (Homo sapiens), O14931 (parent)
chain: B1 chain
partner: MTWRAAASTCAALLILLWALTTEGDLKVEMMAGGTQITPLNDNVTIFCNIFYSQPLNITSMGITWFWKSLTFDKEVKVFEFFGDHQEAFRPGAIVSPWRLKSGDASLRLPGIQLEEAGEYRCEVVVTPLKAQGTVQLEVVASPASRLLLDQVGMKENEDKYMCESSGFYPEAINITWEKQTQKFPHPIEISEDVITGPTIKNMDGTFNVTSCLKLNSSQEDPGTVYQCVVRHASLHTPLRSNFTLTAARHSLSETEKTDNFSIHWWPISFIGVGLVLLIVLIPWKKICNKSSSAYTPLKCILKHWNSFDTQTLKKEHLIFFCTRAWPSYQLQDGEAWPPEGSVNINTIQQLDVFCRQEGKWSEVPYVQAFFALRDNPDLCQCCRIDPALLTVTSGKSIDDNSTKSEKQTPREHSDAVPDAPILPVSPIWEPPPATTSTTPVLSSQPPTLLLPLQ

Variants of: B1
Conditions: with bag6_human BAG6, P46379
Sequence of bag6_human BAG6, P46379 (P46379 whole entry): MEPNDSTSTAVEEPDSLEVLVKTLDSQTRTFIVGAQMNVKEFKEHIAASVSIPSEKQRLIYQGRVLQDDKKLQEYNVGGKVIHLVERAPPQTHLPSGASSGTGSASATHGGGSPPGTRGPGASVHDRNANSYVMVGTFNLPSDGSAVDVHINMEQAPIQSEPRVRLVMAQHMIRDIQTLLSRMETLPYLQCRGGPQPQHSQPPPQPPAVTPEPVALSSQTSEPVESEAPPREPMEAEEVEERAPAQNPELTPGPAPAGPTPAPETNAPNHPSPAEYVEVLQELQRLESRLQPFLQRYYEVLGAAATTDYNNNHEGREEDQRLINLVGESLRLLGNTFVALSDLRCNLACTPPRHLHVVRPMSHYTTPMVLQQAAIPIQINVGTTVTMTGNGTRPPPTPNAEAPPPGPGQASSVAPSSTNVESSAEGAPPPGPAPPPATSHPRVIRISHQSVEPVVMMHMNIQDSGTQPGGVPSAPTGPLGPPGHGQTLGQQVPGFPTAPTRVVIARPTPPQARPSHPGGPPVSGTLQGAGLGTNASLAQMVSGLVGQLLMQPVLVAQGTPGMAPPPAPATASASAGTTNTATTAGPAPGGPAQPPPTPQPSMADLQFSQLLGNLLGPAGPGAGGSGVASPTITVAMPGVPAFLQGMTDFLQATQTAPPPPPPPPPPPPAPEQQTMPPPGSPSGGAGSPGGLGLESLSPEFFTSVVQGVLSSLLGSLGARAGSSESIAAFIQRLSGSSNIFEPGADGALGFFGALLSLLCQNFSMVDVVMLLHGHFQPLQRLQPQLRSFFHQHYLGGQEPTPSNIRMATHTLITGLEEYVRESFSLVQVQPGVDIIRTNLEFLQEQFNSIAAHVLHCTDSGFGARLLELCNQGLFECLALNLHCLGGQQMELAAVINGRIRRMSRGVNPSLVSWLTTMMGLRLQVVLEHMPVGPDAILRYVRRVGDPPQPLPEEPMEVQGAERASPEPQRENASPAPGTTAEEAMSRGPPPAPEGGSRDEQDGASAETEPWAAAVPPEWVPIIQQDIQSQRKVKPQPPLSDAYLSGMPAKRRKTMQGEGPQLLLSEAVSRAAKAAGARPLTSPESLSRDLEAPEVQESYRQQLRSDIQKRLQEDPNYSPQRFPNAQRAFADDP
In the case of N42Q, the “effect of a mutation on the interaction” value is reported as “with no effect”. N42Q;N68Q was tested, and the “effect of a mutation on the interaction” value was “with no effect”. With N42Q;N68Q;N121Q the “effect of a mutation on the interaction” value was “with no effect”. N42Q;N121Q was tested, and the “effect of a mutation on the interaction” value was “with no effect”. In the case of N68Q, the “effect of a mutation on the interaction” value is reported as “with no effect”. For N68Q;N121Q, the “effect of a mutation on the interaction” value was “with no effect”. N121Q was tested, and the “effect of a mutation on the interaction” value was “with no effect”.

Variants of: B2
Conditions: with nr3l1_human NCR3LG1, Q68D85
For N42Q, the “effect of a mutation on the interaction” value was “disrupting interaction strength”. For N42Q;N68Q, the “effect of a mutation on the interaction” value was “disrupting interaction strength”. N42Q;N68Q;N121Q was tested, and the “effect of a mutation on the interaction” value was “disrupting interaction strength”. In the case of N42Q;N121Q, the “effect of a mutation on the interaction” value is reported as “disrupting interaction strength”. With N68Q the “effect of a mutation on the interaction” value was “decreasing interaction strength”. In the case of N68Q;N121Q, the “effect of a mutation on the interaction” value is reported as “decreasing interaction strength”. For N121Q, the “effect of a mutation on the interaction” value was “with no effect”.
